Source: patent US20120190623

Columns and labels:
[1] = target: FVIII mutant M/F/L 2199/2200/2252 W/W/S (UniProt P00451)
[2] = target: FVIII mutant L/L 2251/2252 L/S (L2252S) (UniProt P00451)
[3] = target: FVIII mutant M/F 2199/2200 W/W (UniProt P00451)
Chain of FVIII mutant M/F 2199/2200 W/W (P00451 other isoform, or with tags, fused parts or gaps mutant): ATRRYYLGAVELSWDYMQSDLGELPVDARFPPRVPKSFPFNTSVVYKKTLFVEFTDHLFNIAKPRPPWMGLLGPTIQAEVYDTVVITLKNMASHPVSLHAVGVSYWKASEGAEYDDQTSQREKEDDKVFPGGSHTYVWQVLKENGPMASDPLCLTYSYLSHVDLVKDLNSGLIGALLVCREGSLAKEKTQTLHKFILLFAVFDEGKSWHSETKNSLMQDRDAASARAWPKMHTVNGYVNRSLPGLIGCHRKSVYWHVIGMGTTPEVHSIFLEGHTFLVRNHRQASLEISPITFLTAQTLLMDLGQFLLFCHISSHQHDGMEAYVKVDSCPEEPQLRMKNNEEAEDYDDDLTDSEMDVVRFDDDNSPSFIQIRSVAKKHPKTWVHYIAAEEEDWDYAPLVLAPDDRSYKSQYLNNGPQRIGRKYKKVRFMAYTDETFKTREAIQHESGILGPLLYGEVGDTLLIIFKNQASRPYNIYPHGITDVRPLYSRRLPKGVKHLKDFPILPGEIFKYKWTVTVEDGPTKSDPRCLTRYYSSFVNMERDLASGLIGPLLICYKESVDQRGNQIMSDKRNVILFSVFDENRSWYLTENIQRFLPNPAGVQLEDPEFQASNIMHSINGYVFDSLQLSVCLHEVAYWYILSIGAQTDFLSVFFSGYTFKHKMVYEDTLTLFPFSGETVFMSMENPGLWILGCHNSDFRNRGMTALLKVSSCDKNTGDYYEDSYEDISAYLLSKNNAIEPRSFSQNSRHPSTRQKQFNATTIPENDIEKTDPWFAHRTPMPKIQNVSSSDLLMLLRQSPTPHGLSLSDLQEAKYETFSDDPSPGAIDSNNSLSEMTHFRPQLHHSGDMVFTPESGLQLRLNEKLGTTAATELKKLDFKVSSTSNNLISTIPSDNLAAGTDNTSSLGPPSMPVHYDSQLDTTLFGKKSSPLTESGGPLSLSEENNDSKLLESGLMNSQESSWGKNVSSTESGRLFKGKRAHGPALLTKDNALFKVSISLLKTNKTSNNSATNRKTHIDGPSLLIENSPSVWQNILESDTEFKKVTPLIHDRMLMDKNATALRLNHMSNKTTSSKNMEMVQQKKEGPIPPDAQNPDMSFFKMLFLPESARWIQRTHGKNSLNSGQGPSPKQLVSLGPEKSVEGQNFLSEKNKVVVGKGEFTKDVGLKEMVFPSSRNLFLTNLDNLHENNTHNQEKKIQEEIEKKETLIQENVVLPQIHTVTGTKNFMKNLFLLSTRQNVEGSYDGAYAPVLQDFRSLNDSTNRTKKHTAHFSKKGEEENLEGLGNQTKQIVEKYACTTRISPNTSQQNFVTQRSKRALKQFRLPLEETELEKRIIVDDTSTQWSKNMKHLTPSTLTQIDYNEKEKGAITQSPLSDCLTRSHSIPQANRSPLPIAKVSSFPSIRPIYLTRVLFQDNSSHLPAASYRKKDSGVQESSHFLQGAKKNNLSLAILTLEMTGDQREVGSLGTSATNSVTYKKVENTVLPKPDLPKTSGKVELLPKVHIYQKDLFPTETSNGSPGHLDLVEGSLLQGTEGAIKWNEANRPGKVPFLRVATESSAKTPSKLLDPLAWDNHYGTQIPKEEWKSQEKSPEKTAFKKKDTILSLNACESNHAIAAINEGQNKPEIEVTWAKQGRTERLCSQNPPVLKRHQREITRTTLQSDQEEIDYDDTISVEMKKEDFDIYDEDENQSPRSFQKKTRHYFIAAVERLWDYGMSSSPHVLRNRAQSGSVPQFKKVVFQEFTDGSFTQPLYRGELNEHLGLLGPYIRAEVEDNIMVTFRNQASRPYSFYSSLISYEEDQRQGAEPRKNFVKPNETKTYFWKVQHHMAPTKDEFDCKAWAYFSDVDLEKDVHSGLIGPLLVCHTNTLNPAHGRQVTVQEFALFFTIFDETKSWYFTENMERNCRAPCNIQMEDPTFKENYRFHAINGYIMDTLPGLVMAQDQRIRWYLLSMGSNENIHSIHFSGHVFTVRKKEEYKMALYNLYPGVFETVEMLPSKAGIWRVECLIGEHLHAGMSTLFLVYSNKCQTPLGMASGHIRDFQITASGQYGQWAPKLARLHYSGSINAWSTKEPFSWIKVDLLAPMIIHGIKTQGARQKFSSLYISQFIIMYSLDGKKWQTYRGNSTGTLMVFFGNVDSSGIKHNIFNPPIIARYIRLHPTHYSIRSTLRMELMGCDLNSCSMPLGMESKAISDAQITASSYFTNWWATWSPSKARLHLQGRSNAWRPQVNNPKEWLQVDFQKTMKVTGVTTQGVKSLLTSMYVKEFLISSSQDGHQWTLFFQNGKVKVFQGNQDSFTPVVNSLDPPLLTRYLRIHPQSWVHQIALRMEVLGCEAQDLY

Chain of FVIII mutant M/F/L 2199/2200/2252 W/W/S (P00451 other isoform, or with tags, fused parts or gaps mutant): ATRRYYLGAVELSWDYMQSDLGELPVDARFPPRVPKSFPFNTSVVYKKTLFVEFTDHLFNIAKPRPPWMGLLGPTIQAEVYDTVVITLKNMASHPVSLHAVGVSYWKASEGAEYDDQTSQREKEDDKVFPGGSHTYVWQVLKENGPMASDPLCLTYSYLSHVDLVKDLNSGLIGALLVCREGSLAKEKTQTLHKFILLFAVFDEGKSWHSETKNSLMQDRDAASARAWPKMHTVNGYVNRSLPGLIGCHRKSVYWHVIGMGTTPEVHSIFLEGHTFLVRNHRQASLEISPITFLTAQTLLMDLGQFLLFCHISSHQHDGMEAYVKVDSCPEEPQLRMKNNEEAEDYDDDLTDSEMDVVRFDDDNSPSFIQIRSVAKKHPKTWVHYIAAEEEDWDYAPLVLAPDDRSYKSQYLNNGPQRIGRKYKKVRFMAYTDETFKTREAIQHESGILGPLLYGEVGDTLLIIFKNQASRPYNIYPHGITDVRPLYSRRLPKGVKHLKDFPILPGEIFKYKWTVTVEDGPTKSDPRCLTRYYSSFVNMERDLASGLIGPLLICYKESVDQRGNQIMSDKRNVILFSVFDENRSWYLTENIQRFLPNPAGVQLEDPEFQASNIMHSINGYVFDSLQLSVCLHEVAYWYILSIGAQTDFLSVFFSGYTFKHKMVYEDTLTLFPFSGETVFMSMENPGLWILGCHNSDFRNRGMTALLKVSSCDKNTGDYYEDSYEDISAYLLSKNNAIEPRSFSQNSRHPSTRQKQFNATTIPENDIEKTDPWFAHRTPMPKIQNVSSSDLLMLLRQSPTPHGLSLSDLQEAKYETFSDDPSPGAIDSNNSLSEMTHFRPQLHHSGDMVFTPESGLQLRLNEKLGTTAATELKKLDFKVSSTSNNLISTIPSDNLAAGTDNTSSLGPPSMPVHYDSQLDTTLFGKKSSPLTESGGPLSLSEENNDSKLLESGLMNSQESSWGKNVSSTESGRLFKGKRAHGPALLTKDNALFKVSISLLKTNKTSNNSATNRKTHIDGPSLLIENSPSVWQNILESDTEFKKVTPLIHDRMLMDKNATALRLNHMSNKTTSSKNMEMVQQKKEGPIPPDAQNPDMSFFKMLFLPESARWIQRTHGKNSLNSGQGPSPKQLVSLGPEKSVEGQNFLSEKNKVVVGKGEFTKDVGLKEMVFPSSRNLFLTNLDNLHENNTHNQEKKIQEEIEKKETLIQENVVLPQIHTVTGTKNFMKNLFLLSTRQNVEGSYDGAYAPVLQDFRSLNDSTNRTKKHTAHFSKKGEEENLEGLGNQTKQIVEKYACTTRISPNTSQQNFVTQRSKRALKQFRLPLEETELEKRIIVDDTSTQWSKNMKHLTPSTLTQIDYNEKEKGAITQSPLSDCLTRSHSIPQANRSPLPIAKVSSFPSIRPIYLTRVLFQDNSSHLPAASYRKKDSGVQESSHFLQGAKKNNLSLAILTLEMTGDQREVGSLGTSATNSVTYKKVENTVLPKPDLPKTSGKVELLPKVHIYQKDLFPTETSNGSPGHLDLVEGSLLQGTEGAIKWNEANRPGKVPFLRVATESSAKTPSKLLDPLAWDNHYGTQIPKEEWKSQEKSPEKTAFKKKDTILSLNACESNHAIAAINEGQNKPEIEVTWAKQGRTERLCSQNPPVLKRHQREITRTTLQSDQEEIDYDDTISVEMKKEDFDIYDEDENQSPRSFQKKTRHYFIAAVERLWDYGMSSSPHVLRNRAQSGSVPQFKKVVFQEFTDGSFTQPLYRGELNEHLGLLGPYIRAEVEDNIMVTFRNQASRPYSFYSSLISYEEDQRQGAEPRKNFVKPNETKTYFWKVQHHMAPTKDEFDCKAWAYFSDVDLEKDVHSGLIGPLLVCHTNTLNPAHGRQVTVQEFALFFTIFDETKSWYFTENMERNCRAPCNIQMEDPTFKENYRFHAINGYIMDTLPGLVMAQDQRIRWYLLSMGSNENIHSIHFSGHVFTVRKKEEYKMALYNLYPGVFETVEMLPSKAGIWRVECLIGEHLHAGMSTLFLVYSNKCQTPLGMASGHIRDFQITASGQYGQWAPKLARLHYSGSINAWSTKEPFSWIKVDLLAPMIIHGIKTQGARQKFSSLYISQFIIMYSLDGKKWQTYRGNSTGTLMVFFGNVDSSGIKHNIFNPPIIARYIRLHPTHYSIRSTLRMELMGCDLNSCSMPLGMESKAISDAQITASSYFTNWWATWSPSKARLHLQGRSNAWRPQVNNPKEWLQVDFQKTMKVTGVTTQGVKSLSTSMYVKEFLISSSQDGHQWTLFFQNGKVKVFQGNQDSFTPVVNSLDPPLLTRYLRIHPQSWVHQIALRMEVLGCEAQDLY

factor IXa
apparent affinity for factor IXa, Xase assay with 15% PS vesicles [1]: the apparent affinity for factor IXa was reduced 5-fold | apparent affinity of factor IXa, Xase assay with saturating PL, 1000 µM [1]: the apparent affinity of factor IXa for the mutants was decreased approximately 4-fold for the three mutants | apparent affinity for factor IXa, Xase assay with 15% PS vesicles [2]: the apparent affinity for factor IXa was reduced 5-fold | apparent affinity of factor IXa, Xase assay with saturating PL, 1000 µM [2]: the apparent affinity of factor IXa for the mutants was decreased approximately 4-fold for the three mutants | apparent affinity for factor IXa, Xase assay with 15% PS vesicles [3]: the apparent affinity for factor IXa was reduced 5-fold | apparent affinity of factor IXa, Xase assay with saturating PL, 1000 µM [3]: the apparent affinity of factor IXa for the mutants was decreased approximately 4-fold for the three mutants
